Laboratory results as given in publication PMC11984392, “EphA2-targeted alpha-particle theranostics for enhancing PDAC treatment” (Theranostics, 2025).
*1 amine or outer side, *2 acyl side, *3 side chain or, on linkers, in order; H or OH if unused. Bridges are numbered along the chain shown (N, C = ends). Primed or numbered codes have the meaning given here. [ ]: non-standard residue; d: D form. The star is where a group is joined. DOTA = O=C(O)CN1CCN(CC(=O)O)CCN(CC(=O)*)CCN(CC(=O)O)CC1; TATA = O=C(CC[*:1])N1CN(C(=O)CC[*:2])CN(C(=O)CC[*:3])C1; NOTA = O=C(O)CN1CCN(CC(=O)O)CCN(CC(=O)*)CC1; Hyp = O=C(O)[C@@H]1C[C@@H](O)CN1; hArg = N=C(N)NCCCC[C@H](N)C(=O)O; PEG2′ = not defined here; Sar = CNCC(=O)O

What was measured:
Conditions in all cases: both partners purified
[1] = biological target: T1, His-tagged mouse EphA2 (mouse, UniProt Q03145 26-538); assay: SPR; Biacore T200, CM5 chip, 25 °C; His-tagged EphA2 captured (~750 RU) on amine-coupled anti-His antibody; peptide as analyte in HBS-P (10 mM HEPES pH 7.4, 150 mM NaCl, 0.05% P20) + 0.1% DMSO, 50 μL/min, contact 120 s, dissociation 600 s; 1:1 kinetics model
T1 construct: Mouse EphA2, recombinant, His-tagged, printed as 58 kDa; also called mEphA2; recombinant mouse EphA2; source: bought: SinoBiological, cat.# 50586-M08H

[2] = biological target: T2, His-tagged human EphA2 (human, UniProt P29317 24-537); assay: as above
T2 construct: Human EphA2 (Ephrin receptor A2), recombinant, His-tagged, printed as 56.9 kDa; also called hEphA2; recombinant human EphA2; source: bought: R&D systems, catalog # 3035-A2
T2 sequence (P29317 24-537): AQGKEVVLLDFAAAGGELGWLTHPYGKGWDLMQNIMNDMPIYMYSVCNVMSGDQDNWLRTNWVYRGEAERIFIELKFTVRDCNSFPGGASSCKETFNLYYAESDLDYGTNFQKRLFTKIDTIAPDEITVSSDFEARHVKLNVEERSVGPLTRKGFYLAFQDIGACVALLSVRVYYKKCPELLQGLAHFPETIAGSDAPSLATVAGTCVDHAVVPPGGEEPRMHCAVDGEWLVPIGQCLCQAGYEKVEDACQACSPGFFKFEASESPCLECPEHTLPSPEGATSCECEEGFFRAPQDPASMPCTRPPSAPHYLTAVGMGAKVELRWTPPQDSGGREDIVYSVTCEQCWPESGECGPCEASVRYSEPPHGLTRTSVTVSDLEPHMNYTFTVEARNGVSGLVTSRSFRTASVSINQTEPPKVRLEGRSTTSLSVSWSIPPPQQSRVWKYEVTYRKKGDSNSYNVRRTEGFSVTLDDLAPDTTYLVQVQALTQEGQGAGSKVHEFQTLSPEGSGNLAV

[3] = biological target: T3, His-tagged human EphA2 (human, UniProt P29317 24-537); assay: SPR; Biacore T200, CM5 chip, 25 °C; His-tagged human EphA2 captured on immobilised anti-His antibody (FC2); AJ210 as analyte, 0.625-80 nM, in HBS-P + 0.1% DMSO, 50 μL/min, contact 120 s, dissociation 600 s; 1:1 kinetics model
T3 construct: human EphA2 (Ephrin receptor A2), recombinant, 56.9 kDa; also called recombinant human EphA2 protein; hEphA2; source: bought: R&D systems, catalog # 3035-A2
T3 sequence (P29317 24-537): as above

T1 sequence (Q03145 26-538): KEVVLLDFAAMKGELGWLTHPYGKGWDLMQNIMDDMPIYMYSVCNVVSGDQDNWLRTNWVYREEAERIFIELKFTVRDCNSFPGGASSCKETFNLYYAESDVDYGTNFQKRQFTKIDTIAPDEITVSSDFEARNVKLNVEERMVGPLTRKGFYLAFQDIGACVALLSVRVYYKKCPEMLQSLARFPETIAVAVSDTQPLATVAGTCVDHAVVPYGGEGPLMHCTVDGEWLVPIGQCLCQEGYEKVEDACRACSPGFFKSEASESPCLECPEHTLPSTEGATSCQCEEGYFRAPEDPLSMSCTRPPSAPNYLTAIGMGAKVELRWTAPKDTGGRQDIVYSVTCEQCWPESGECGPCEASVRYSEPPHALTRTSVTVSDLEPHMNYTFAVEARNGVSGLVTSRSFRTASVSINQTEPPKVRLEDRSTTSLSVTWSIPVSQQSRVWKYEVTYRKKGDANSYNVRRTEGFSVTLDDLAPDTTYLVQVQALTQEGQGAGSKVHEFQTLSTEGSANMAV

B1: AJ201 (peptide)
peptide: {NOTA-PEG2′}-GR[Sar][Sar][Sar]GA[hArg]DC[Hyp]LVNPLCLHP[dD]W[hArg]C-NH2
modifications: linker 10-17-24 via TATA; not fully specified; also: hydroxyproline, place not given here
notes: also called non-radioactive AJ201; bicyclic peptide AJ201; source: synthetic peptide, synthesized by CPC Scientific Inc., >90% purity
With B1 the Kd [1] was 0.6 nM and the Kd [2] was 0.2 nM.

B2: AJ210 (peptide)
chain: {DOTA}-A[hArg]DC[Hyp]LVNPLCLHP[dD]W[hArg]C-NH2
modifications: linker 4-11-18 via TATA
SMILES: CC(C)C[C@@H]1NC(=O)[C@@H]2CSCCC(=O)N3CN(CN(C3)C(=O)CCSC[C@H](NC(=O)[C@H](CC(=O)O)NC(=O)[C@H](CCCCNC(=N)N)NC(=O)[C@H](C)NC(=O)CN3CCN(CC(=O)O)CCN(CC(=O)O)CCN(CC(=O)O)CC3)C(=O)N3C[C@H](O)C[C@H]3C(=O)N[C@@H](CC(C)C)C(=O)N[C@@H](C(C)C)C(=O)N[C@@H](CC(N)=O)C(=O)N3CCC[C@H]3C(=O)N[C@@H](CC(C)C)C(=O)N2)C(=O)CCSC[C@@H](C(N)=O)NC(=O)[C@H](CCCCNC(=N)N)NC(=O)[C@H](Cc2c[nH]c3ccccc23)NC(=O)[C@@H](CC(=O)O)NC(=O)[C@@H]2CCCN2C(=O)[C@H](Cc2c[nH]cn2)NC1=O
Work on B2 yielded a Kd [3] of 2.4 nM, a koff [3] of 0.00136 s⁻¹ and a kon [3] of 561000 M⁻¹ s⁻¹.
